Measured values published in US20250057968A1, “ANTI-DLL3 ANTIBODY AND PHARMACEUTICAL USE THEREOF, AND ANTIBODY-DRUG CONJUGATE CONTAINING ANTI-DLL3 ANTIBODY” (Jiangsu Hengrui Pharmaceuticals Co., Ltd., priority 2021, published 2025).

What was measured:
[1] = biological target: T1, Rat DLL3 full-length protein on CHO-s cells (rat, UniProt O88671 33-589); assay: FACS on RatDLL3/CHO-s cells
T1 construct: also called RatDLL3/CHO-s; ratDLL3/CHO-s
T1 sequence: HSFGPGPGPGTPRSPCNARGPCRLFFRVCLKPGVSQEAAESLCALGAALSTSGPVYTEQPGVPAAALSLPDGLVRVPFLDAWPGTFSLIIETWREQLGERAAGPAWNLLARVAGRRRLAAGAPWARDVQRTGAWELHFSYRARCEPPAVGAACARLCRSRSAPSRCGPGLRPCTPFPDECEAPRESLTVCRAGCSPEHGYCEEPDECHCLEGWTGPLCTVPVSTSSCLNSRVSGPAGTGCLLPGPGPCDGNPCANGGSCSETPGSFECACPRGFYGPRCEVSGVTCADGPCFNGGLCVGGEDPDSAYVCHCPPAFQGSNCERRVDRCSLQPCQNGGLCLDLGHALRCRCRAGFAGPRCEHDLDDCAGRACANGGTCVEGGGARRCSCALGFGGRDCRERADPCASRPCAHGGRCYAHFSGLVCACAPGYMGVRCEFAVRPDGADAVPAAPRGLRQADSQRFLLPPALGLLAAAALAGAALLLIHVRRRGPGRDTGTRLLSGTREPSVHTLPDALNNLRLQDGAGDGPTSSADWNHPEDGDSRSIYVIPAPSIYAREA
Description: Cells of the DLL3-expressing small cell lung cancer cell lines H1184 (ATCC, Cat. No. CRL-5858), DLL3/H82, cynoDLL3/CHO-s, and RatDLL3/CHO-s were suspended at 1×10^6/mL in FACS buffer (1% BSA+pH 7.4 PBS), and the cell suspensions were added to a 96-well round-bottom plate (Corning, 3795) at 100 μL/well. The plate was centrifuged at 300 g for 5 min, and the supernatant was removed. Different concentrations of test antibodies were added at 100 μL/well. The plate was incubated in the dark in a refrigerator at 4° C. for 1 h. After 3 washes by centrifugation at 300 g, working concentrations of APC anti-human IgG Fc (BioLegend, 410712) or PE F(ab′)2-goat anti-human IgG (invitrogen, H10104) were added. The plate was incubated in the dark in a refrigerator at 4° C. for 40 min. After 3 washes by centrifugation at 300 g, the geometric mean fluorescence intensity was measured on an Invitrogen flow cytometer, and the EC50 values of the antibodies in binding to DLL3-expressing cells were calculated.

[2] = biological target: T2, human DLL3 (ACRO, DLL3-H52H4) (human, UniProt Q9NYJ7 27-479); assay: SPR (Biacore 8K), antibody captured on Protein A chip, 1:1 fit
T2 construct: bought antigen of the Biacore assay; construct not described
T2 sequence (looked up): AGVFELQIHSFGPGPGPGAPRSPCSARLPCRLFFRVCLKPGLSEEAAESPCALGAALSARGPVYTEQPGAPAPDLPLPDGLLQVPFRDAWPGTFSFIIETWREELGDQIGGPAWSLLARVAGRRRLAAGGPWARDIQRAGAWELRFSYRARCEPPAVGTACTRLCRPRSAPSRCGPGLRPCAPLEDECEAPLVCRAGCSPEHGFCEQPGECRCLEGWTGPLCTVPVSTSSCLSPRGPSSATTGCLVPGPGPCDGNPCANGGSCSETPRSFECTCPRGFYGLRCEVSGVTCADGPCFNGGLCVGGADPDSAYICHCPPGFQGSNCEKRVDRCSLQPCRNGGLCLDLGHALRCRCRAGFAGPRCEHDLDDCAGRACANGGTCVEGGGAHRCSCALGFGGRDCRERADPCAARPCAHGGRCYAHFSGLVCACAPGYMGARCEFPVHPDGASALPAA
Text: (§1) Test antibodies were affinity-captured with a Protein A biosensor chip (Cat. #29127556, Cytiva) for 18 seconds, and then the antigens human DLL3 (ACRO, DLL3-H52H4), cynomolgus monkey DLL3 (KACTUS, DLL-RM103), and mouse DLL3 (KACTUS, DLL-MM103) were allowed to flow over the surface of the chip for 180 seconds, followed by 600 seconds of dissociation. Reaction signals were detected in real time using a Biacore 8K (Cytiva) instrument to obtain association and dissociation curves. After the dissociation in each experimental cycle, the biosensor chip was washed and regenerated with a 10 mM glycine-hydrochloric acid solution (pH 1.5) (Cat. #BR-1003-54, Cytiva). A 1:1 model was fit to the data. The results are shown in Table 12-1, Table 12-2, and Table 12-3.

[3] = biological target: T3, mouse DLL3 (KACTUS, DLL-MM103) (mouse, UniProt O88516 33-490, limits assumed); assay: SPR (Biacore 8K), antibody captured on Protein A chip
T3 construct: bought antigen of the Biacore assay; construct not described
T3 sequence (looked up): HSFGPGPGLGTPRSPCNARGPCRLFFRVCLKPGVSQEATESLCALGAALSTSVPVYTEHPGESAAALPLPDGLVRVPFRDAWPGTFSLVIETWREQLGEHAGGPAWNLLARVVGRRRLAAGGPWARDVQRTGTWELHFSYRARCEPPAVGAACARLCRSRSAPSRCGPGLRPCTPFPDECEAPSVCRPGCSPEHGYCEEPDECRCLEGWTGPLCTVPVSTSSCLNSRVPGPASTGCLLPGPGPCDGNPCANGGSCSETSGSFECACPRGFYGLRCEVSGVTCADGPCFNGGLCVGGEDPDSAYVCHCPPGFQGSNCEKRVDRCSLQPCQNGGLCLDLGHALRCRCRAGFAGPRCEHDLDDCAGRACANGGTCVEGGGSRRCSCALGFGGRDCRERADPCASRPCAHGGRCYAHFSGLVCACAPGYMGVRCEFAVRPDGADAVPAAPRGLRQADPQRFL
Text: as §1

Row | Binder | EC50 [1] [nM] | Kd [2] [nM] | koff [2] [s⁻¹] | kon [2] [M⁻¹ s⁻¹] | binding result [3] | binding result [1]
1 | Hu6 (antibody, human IgG1, kappa, V domains shown, also called hAb6L4H12) VH: EVQLVQSGSELKKPGASVKVSCKASGYTFTDYYMNWVRQAPGQGLEWMGIINPYSGVTIYNHKFKGRFALSVDKSSNTAYLQISSLKAEDTAVYYCARQDSLLDYAMDYWGQGTTVTVSS VL: DIQMTQSPSSLSASVGDRVTITCHASQGISGNMGWLQQKPGKAPKGLIYHGANLEDGVPSRFSGSGSGADYTLTISSLQPEDFADYYCVQYAQFPYTFGGGTKVEIKR | 1.42 | – | – | – | – | –
2 | Hu100 (antibody, human IgG1, kappa, V domains shown, also called hAb100L1H1) VH: EVQLVESGGGLVKPGGSLRLSCAASGFTFSDSGMHWIRQAPGKGLEWVSYISSGSSTIHYADTVKGRFTISRDNAKNSLYLQMNSLRAEDTAVYYCASPLYYYGRSYNAVAYWGQGTTVTVSS VL: DIQMTQSPSSLSASVGDRVTITCHASQNINVWLSWYQQKPGKVPKLLIYKASDLHTGVPSRFSGSGSGTDFTLTISSLQPEDVATYYCQQGQSYPLTFGGGTKVEIKR | – | 0.436 | 0.000374 | 858000 | no binding | no binding
